Changes are numbered by the printed parent chain.
B1: H237-MB561/MRAL-k0 (antibody, mouse IgG1, kappa)
heavy: QVQLQESGPGLVKPSETLSLTCAVSGHSISHDHAWSWVRQPPGEGLEWIGFISYSGITNYNPSLQGRVTISRDNSKNTLYLQMNSLRAEDTAVYYCARSLARTTAMDYWGEGTLVTVSSAKTTPPSVYPLAPGSAAQTNSMVTLGCLVKGYFPEPVTVTWNSGSLSSGVHTFPAVLQSDLYTLSSSVTVPSSTWPSETVTCNVAHPASSTKVDKKIVPRDCGCKPCICTVPEEESVFIFPPKPKDVLTITLTPKVTCVVVDISKDDPEVQFSWFVDDVEVHTAQTQPREEQFNSTFRSVSELPIMHQDWLNGKEFKCRVNSAAFPAPIEKTISKTKGRPKAPQVYTIPPPKEQMAKDKVSLTCMITDFFPEDITVEWQWNGQPAENYKNTQPIMDTDGSYFVYSKLNVQKSNWEAGNTFTCSVLHEGLHNHHTEKSLSHSPGK
light: not shown
notes: copies: 2 + 2
B2: H237-MB585/MRAL-k0 (antibody, mouse IgG1, kappa)
heavy: B1 heavy with E233V, E234D, S235F
light: not shown
notes: copies: 2 + 2
B3: H237-MB579/MRAL-k0 (antibody, mouse IgG1, kappa)
heavy: B1 heavy with E233V, E234S, S235W, F237D
light: not shown
notes: copies: 2 + 2
B4: H237-MB565/MRAL-k0 (antibody, mouse IgG1, kappa)
heavy: B1 heavy with E233V, F237E
light: not shown
notes: copies: 2 + 2
B5: H237-MB586/MRAL-k0 (antibody, mouse IgG1, kappa)
heavy: B1 heavy with E233V, E234D, S235W
light: not shown
notes: copies: 2 + 2
B6: H237-MB591/MRAL-k0 (antibody, mouse IgG1, kappa)
heavy: B1 heavy with E233V, E234D, S294H
light: not shown
notes: copies: 2 + 2
B7: H237-MB584/MRAL-k0 (antibody, mouse IgG1, kappa)
heavy: B1 heavy with E234D
light: not shown
notes: copies: 2 + 2
B8: H237-MB562/MRAL-k0 (antibody, mouse IgG1, kappa)
heavy: B1 heavy with E233V, S235F
light: not shown
notes: copies: 2 + 2
B9: H237-MB595/MRAL-k0 (antibody, mouse IgG1, kappa)
heavy: B1 heavy with T229E, E233V, S235F
light: not shown
notes: copies: 2 + 2
B10: H237-MB573/MRAL-k0 (antibody, mouse IgG1, kappa)
heavy: B1 heavy with E234S, F237D
light: not shown
notes: copies: 2 + 2
B11: H237-MB577/MRAL-k0 (antibody, mouse IgG1, kappa)
heavy: B1 heavy with E233V, E234S, S235F, F237E
light: not shown
notes: copies: 2 + 2
B12: H237-MB589/MRAL-k0 (antibody, mouse IgG1, kappa)
heavy: B1 heavy with E233V, E234D, F237T
light: not shown
notes: copies: 2 + 2
B13: H237-MB588/MRAL-k0 (antibody, mouse IgG1, kappa)
heavy: B1 heavy with E233V, E234D, F237E
light: not shown
notes: copies: 2 + 2
B14: H237-MB566/MRAL-k0 (antibody, mouse IgG1, kappa)
heavy: B1 heavy with E233V, F237T
light: not shown
notes: copies: 2 + 2
B15: H237-MB564/MRAL-k0 (antibody, mouse IgG1, kappa)
heavy: B1 heavy with E233V, F237D
light: not shown
notes: copies: 2 + 2
B16: H237-MB587/MRAL-k0 (antibody, mouse IgG1, kappa)
heavy: B1 heavy with E233V, E234D, F237D
light: not shown
notes: copies: 2 + 2
B17: H237-MB563/MRAL-k0 (antibody, mouse IgG1, kappa)
heavy: B1 heavy with E233V, S235W
light: not shown
notes: copies: 2 + 2
B18: H237-MB571/MRAL-k0 (antibody, mouse IgG1, kappa)
heavy: B1 heavy with E234S, S235F
light: not shown
notes: copies: 2 + 2
B19: H237-MB574/MRAL-k0 (antibody, mouse IgG1, kappa)
heavy: B1 heavy with E234S, F237E
light: not shown
notes: copies: 2 + 2
B20: H237-MB575/MRAL-k0 (antibody, mouse IgG1, kappa)
heavy: B1 heavy with E234S, F237T
light: not shown
notes: copies: 2 + 2
B21: H237-MB567/MRAL-k0 (antibody, mouse IgG1, kappa)
heavy: B1 heavy with E233V, S263M
light: not shown
notes: copies: 2 + 2
B22: H237-MB576/MRAL-k0 (antibody, mouse IgG1, kappa)
heavy: B1 heavy with E233V, E234S, S235F, F237D
light: not shown
notes: copies: 2 + 2
B23: H237-MB572/MRAL-k0 (antibody, mouse IgG1, kappa)
heavy: B1 heavy with E234S, S235W
light: not shown
notes: copies: 2 + 2
B24: H237-MB568/MRAL-k0 (antibody, mouse IgG1, kappa)
heavy: B1 heavy with E233V, S294H
light: not shown
notes: copies: 2 + 2
B25: H237-MB578/MRAL-k0 (antibody, mouse IgG1, kappa)
heavy: B1 heavy with E233V, E234S, S235F, F237T
light: not shown
notes: copies: 2 + 2
B26: H237-MB581/MRAL-k0 (antibody, mouse IgG1, kappa)
heavy: B1 heavy with E233V, E234S, S235W, F237T
light: not shown
notes: copies: 2 + 2
B27: H237-MB580/MRAL-k0 (antibody, mouse IgG1, kappa)
heavy: B1 heavy with E233V, E234S, S235W, F237E
light: not shown
notes: copies: 2 + 2

Target: T1, mouse FcγRIII extracellular domain, C-terminal His tag (mouse, UniProt P08508 31-215)
T1 construct: Whole entry named; also called mFcγRIII; mFcgRIII
T1 chain: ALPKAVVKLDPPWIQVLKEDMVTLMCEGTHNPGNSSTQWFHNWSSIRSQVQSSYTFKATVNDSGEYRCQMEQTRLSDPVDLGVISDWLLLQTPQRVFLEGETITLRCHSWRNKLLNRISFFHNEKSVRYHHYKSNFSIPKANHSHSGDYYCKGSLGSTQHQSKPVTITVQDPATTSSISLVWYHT
Test: SPR (Biacore T200); KD of H237-mIgG1/MRAL-k0 / KD of variant

| Binder | relative mFcγRIII-binding activity (mIgG1 = 1) |
| --- | --- |
| B1 | 0.07 fold |
| B2 | 0.03 fold |
| B3 | 0.34 fold |
| B4 | 0.23 fold |
| B5 | 0.08 fold |
| B6 | 0.02 fold |
| B7 | 0.02 fold |
| B8 | 0.02 fold |
| B9 | 0.05 fold |
| B10 | 0.06 fold |
| B11 | 1.19 fold |
| B12 | 0.19 fold |
| B13 | 1.01 fold |
| B14 | 0.1 fold |
| B15 | 0.11 fold |
| B16 | 0.6 fold |
| B17 | 0.08 fold |
| B18 | 0.05 fold |
| B19 | 0.1 fold |
| B20 | 0.05 fold |
| B21 | 0.07 fold |
| B22 | 0.6 fold |
| B23 | 0.07 fold |
| B24 | 0.18 fold |
| B25 | 0.25 fold |
| B26 | 0.42 fold |
| B27 | 0.61 fold |

target: T2, mouse FcγRII extracellular domain, C-terminal His tag (mouse, UniProt P08101 30-210); test: as above
T2 construct: Whole entry named; also called mFcγRII; mFcgRII
T2 sequence: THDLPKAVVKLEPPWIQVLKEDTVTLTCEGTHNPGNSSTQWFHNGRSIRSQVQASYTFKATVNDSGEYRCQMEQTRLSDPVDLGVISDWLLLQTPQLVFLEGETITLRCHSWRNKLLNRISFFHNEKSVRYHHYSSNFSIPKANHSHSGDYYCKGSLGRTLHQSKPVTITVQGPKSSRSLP

| Binder | relative mFcγRII-binding activity (mIgG1 = 1) |
| --- | --- |
| B1 | 0.48 fold |
| B2 | 0.06 fold |
| B3 | 0.89 fold |
| B4 | 0.66 fold |
| B5 | 0.13 fold |
| B6 | 0.08 fold |
| B7 | 0.08 fold |
| B8 | 0.05 fold |
| B9 | 0.09 fold |
| B10 | 0.43 fold |
| B11 | 2.51 fold |
| B12 | 0.23 fold |
| B13 | 2.01 fold |
| B14 | 0.18 fold |
| B15 | 0.32 fold |
| B16 | 1.33 fold |
| B17 | 0.2 fold |
| B18 | 0.22 fold |
| B19 | 0.27 fold |
| B20 | 0.08 fold |
| B21 | 0.21 fold |
| B22 | 1.54 fold |
| B23 | 0.26 fold |
| B24 | 0.71 fold |
| B25 | 0.39 fold |
| B26 | 0.69 fold |
| B27 | 1.38 fold |
